Reference: the supplement of paper PMC9170038

System: MS2 coat protein
Assay: apparent KD of MS2 coat protein; designed switch direction (-1 OFF switch, 1 ON switch): -1; higher = weaker reporter binding
Summary of the method: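 Designed RNA switches with common flanks were transcribed on Illumina chips by stalled E. coli RNA polymerase and titrated with SNAP-549-labelled MS2 coat protein, from 0.7 or 1.5 nM doubling to 3 µM, in Tris-HCl pH 7.5 buffer with KCl, MgCl2, BSA, DTT, tRNA and Tween-20. Steps lasted 0.8–1.5 h (lowest) to 10–20 min (highest). Titrations ran without input, with 200 uM small-molecule ligand, or with an oligonucleotide input. Normalised cluster fluorescence was curve-fitted, and apparent KD is the per-design median over clusters.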

[1] = Eterna round: R95, input ligand: FMN 200 uM
[2] = Eterna round: R95, input ligand: microRNA oligo, concentration not stated
[3] = Eterna round: R95, input ligand: none
[4] = input ligand: microRNA oligo, concentration not stated

For “GCCUCGUCAGGAUAUCUCCACGUGAGCAAGGCUCACGGGCCAGAGAAGGGACUUGAGGAUCACCCAAGUAAAAC [Ritiatso] (Eterna round: R97, puzzle: Exclusion 4)”, the “apparent KD of MS2 coat protein” value (input ligand: FMN 200 uM) was 428 nM and the “apparent KD of MS2 coat protein” value (input ligand: none) was 138 nM.
For “GCGAAAGCAAGCAAGUGAAACAUGAGGAUCACCCAUGUACUCAUUUGCUCGUCUUGUAAGCUAUGCGAAAGCAUAGC [Mat - Sensor v3 - turn-off var 1 - Eli Mod - D51] (puzzle: Sensor v3, turn-off variant 1)”, the “apparent KD of MS2 coat protein” value [1] was 10.7 nM, the “apparent KD of MS2 coat protein” value [2] was 9.67 nM and the “apparent KD of MS2 coat protein” value [3] was 9.72 nM.
With “GCGACGCUACAUGAGGAUCACCCAUGUCCUCACAUGAGAUGGUAGGAUAUUAUAUAUACAUUGUGUGAGAAGGAUCAUCGCCCA [Eternabot solution 2] (Eterna round: R96, puzzle: Exclusion NG 3)” the “apparent KD of MS2 coat protein” value (input ligand: FMN 200 uM) was 351 nM, the “apparent KD of MS2 coat protein” value [4] was 74.8 nM and the “apparent KD of MS2 coat protein” value (input ligand: none) was 121 nM.
For “GCGAGCUGAGGAUAUACAUGAGGAUCACCCAUGUAUUUUGGAAGACUGCCUCCUGCACGUAGAAGGCGGCUCUU [Eternabot (L2) Solution 35] (Eterna round: R97, puzzle: Exclusion 3)”, the “apparent KD of MS2 coat protein” value (input ligand: FMN 200 uM) was 24.4 nM and the “apparent KD of MS2 coat protein” value (input ligand: none) was 24.7 nM.
In the case of “GCGCACCUACCAAAAGGUAGGCCAACAUGAGGAUCACCCAUGUAGGAUAUCGAUUGCUUUGCAGUCGAGAAGGGCAUGAUGCGC [JL ENG3 3.80 Mod 20] (Eterna round: R96, puzzle: Exclusion NG 3)”, the “apparent KD of MS2 coat protein” value (input ligand: FMN 200 uM) is reported as 17.2 nM, the “apparent KD of MS2 coat protein” value [4] is reported as 14.4 nM and the “apparent KD of MS2 coat protein” value (input ligand: none) is reported as 19.9 nM.
In the case of “GCGCACCUACCAAAAGGUAGGUCCACAUGAGGAUCACCCAUGUAGGAUAUCGAUUGCUUUGCAGUCGAGAAGGACAUGAUGCGC [JL ENG3 3.80 Mod 10] (Eterna round: R96, puzzle: Exclusion NG 3)”, the “apparent KD of MS2 coat protein” value (input ligand: FMN 200 uM) is reported as 52.3 nM, the “apparent KD of MS2 coat protein” value [4] is reported as 18.1 nM and the “apparent KD of MS2 coat protein” value (input ligand: none) is reported as 21.3 nM.
“GCGCACUAAGUGAGGAUAUCGUUUAUUUUUAGGAUCGAGAAGGCACAUGAGGAUCACCCAUGUUUGACGUGCGC [JR_BMOE4_Sub099] (puzzle: Brourd's mod of Exclusion 4)” was tested, and the “apparent KD of MS2 coat protein” value [2] was 17.9 nM.
For “GCGCAGUCAGGAUAUGCCGCUUGCGAUCACCGUUGGCAAAGGCAGAAGGGACAUGAGGAUCACCCAUGUGGCGC [e4e Mirror Pins #3] (puzzle: Exclusion 4)”, the “apparent KD of MS2 coat protein” value [2] was 18.1 nM.
For “GCGCCAUCGUGAGAUGGCGUAAAUACAUGAGGAUCACCCAUGUAGGAUAUCGAUUGCUUUGCAGUCGAGAAGGGCAAGGUAUUU [JL ENG3 3.90] (Eterna round: R96, puzzle: Exclusion NG 3)”, the “apparent KD of MS2 coat protein” value (input ligand: FMN 200 uM) was 28.4 nM, the “apparent KD of MS2 coat protein” value [4] was 18.1 nM and the “apparent KD of MS2 coat protein” value (input ligand: none) was 24.9 nM.
In the case of “GCGCCAUCGUGAGAUGGCGUAACUACAUGAGGAUCACCCAUGUAGGAUAUCGAUUGCUUUGCAGUCGAGAAGGGCAUGGUUUGU [JL ENG3 3.86] (Eterna round: R96, puzzle: Exclusion NG 3)”, the “apparent KD of MS2 coat protein” value (input ligand: FMN 200 uM) is reported as 56.1 nM, the “apparent KD of MS2 coat protein” value [4] is reported as 20.2 nM and the “apparent KD of MS2 coat protein” value (input ligand: none) is reported as 22.8 nM.
For “GCGCGAAGGUAGGAUAUCCGGGCAUCUUGCCGCGGAGAAGGACCCACAUGAGGAUCACCCAUGUGGUGAUCCUG [eternacac ex6r4 sub12] (Eterna round: R97, puzzle: Exclusion 6)”, the “apparent KD of MS2 coat protein” value (input ligand: FMN 200 uM) was 40.8 nM and the “apparent KD of MS2 coat protein” value (input ligand: none) was 19.4 nM.
In the case of “GCGGACUAGUUCGUGAGAACUGAGACAUGAGGAUCACCCAUGUAGGAUAUCGAUUCGAAACGAAUCGAGAAGGGCAUAGUCCGC [JL denovo 9] (Eterna round: R96, puzzle: Exclusion NG 3)”, the “apparent KD of MS2 coat protein” value (input ligand: FMN 200 uM) is reported as 25.1 nM, the “apparent KD of MS2 coat protein” value [4] is reported as 17.7 nM and the “apparent KD of MS2 coat protein” value (input ligand: none) is reported as 26.8 nM.
For “GCGGACUUGAUCGUGAGAUCAGAGACAUGAGGAUCACCCAUGUAGGAUAUCGAUUCGUUUCGAAUCGAGAAGGGCGUGGUCCGC [JL denovo 15] (Eterna round: R96, puzzle: Exclusion NG 3)”, the “apparent KD of MS2 coat protein” value (input ligand: FMN 200 uM) was 83.9 nM, the “apparent KD of MS2 coat protein” value [4] was 52.2 nM and the “apparent KD of MS2 coat protein” value (input ligand: none) was 70.2 nM.
For “GCGUGACAUGAGGAUCACCCAUGUGAGGAUAUCUGGAUAAUCUUUAUUUUAGAUAUCCAGAGAAGGCACAUGCU [Ex1-3: 3Z] (puzzle: Exclusion 1)”, the “apparent KD of MS2 coat protein” value [2] was 170 nM.
“GCGUUUUGGUGAGGAUAUCGGCCCUAAACCGGGCAACAUGAGGAUCACCCAUGUACGUGAUCCUGCGAGAAGGCACCGAUUAUA [Digeerle] (Eterna round: R96, puzzle: Exclusion NG 2)” was tested, and the “apparent KD of MS2 coat protein” value (input ligand: FMN 200 uM) was 122 nM, the “apparent KD of MS2 coat protein” value [4] was 104 nM and the “apparent KD of MS2 coat protein” value (input ligand: none) was 123 nM.
With “GCUAGAGCAGGAUAUCUAAAUCCUCACAUGAGGAUCACCCAUGUAGUCGAAAGACUAAGAAGAGAAGGGCUCUAGC [Omei Ex5 E19] (Eterna round: R97, puzzle: Exclusion 5)” the “apparent KD of MS2 coat protein” value (input ligand: FMN 200 uM) was 543 nM and the “apparent KD of MS2 coat protein” value (input ligand: none) was 1290 nM.
In the case of “GCUAGUCAUGUCAGGAUAUGCUGUUCCUUGGAACAGCAGAAGGGACAUGAGGAUCACCCAUGUGCCUAACUAGC [Mat - Exclusion 4 - JL Mod - D12] (Eterna round: R97, puzzle: Brourd's mod of Exclusion 4)”, the “apparent KD of MS2 coat protein” value (input ligand: FMN 200 uM) is reported as 558 nM and the “apparent KD of MS2 coat protein” value (input ligand: none) is reported as 43.8 nM.
In the case of “GCUCGCGGGCAAGGAUAUCCUACGCUGUUCUGGCUCGUGUCUGUUACAUGAGGAUCACCCAUGUGGGAGAAGGUGCACCAGGGC [Design 47] (Eterna round: R96, puzzle: Exclusion NG 2)”, the “apparent KD of MS2 coat protein” value (input ligand: FMN 200 uM) is reported as 24.9 nM, the “apparent KD of MS2 coat protein” value [4] is reported as 17.4 nM and the “apparent KD of MS2 coat protein” value (input ligand: none) is reported as 22.6 nM.
In the case of “GCUGCGCGAGGAUAUGCGGUUCGCGCGGUGGCCGCUGGCGGACAUGAGGAUCACCCAUGUAGAAGGCGUGCGGG [Apr-15 SS2-60] (puzzle: Exclusion 2)”, the “apparent KD of MS2 coat protein” value [2] is reported as 11.7 nM.
With “GCUGCGCGAGGAUAUGCGGUUUGCGCUGUGGCCCGUGGCGUACAUGAGGAUCACCCAUGUAGAAGGCGUGCGGG [Apr-15 SS2-56] (puzzle: Exclusion 2)” the “apparent KD of MS2 coat protein” value [2] was 10.4 nM.
For “GCUGGACGAGGAUAUACAUGAGGAUCACCCAUGUGAUCAGCAGUCCUCGGACUGCAAUGUAGAAGGUGUCCAGC [E3/1-B2] (Eterna round: R97, puzzle: Exclusion 3)”, the “apparent KD of MS2 coat protein” value (input ligand: FMN 200 uM) was 302 nM and the “apparent KD of MS2 coat protein” value (input ligand: none) was 2320 nM.
For “GCUGGUCAAGGAUAUACAUUCGUGCUUCGGCACGUAAGAUCACAUGAGGAUCACCCAUGUAGAAGGUGACCAGC [E2/5-C1] (Eterna round: R97, puzzle: Exclusion 2)”, the “apparent KD of MS2 coat protein” value (input ligand: FMN 200 uM) was 700 nM and the “apparent KD of MS2 coat protein” value (input ligand: none) was 112 nM.
In the case of “GCUGGUCGAGGAUAUACAUAACGUGCUUCGGCACGAGAUCUACAUGAGGAUCACCCAUGUAGAAGGCGACCAGC [E2/10-A1] (Eterna round: R97, puzzle: Exclusion 2)”, the “apparent KD of MS2 coat protein” value (input ligand: FMN 200 uM) is reported as 57.8 nM and the “apparent KD of MS2 coat protein” value (input ligand: none) is reported as 18 nM.
With “GCUUGGCGAGGAUAUACAUGAGGAUCACCCAUGUGAGAGAAAGAAGUGAGGAAGAAAAGUAGAAGGCGCUGAGG [Mat - Exclusion 3 - Mod of Salish D60] (puzzle: Exclusion 3)” the “apparent KD of MS2 coat protein” value [1] was 165 nM, the “apparent KD of MS2 coat protein” value [2] was 50.5 nM and the “apparent KD of MS2 coat protein” value [3] was 75.4 nM.
In the case of “GCUUGUAGAGGAUAUACAAGGGCCUUAGCGGAAAACUCCGCACAUGAGGAUCACCCAUGUAGAAGGCUACCACC [Isrianqu] (puzzle: Exclusion 2)”, the “apparent KD of MS2 coat protein” value [2] is reported as 15.1 nM.
In the case of “GCUUUUCUUUUCCUUUCUUACAUGAGGAUCACCCAUGUUUCUUGUCGCGCUCGCGUUGCUCGUCUGUCUGUCUGUUG [salish99_TOv1_r3_079] (puzzle: Sensor v3, turn-off variant 1)”, the “apparent KD of MS2 coat protein” value [1] is reported as 43.1 nM, the “apparent KD of MS2 coat protein” value [2] is reported as 28.9 nM and the “apparent KD of MS2 coat protein” value [3] is reported as 54.7 nM.
